Test [1] concerns the target T1, Human recombinant CD5L protein (Sino Biological, Catalog Number 10791-H08H) (human, UniProt O43866 20-347).
T1 construct: Bought protein; also called human CD5L; CD5L-His; not shown: 6xHIS-tag
T1 sequence (looked up): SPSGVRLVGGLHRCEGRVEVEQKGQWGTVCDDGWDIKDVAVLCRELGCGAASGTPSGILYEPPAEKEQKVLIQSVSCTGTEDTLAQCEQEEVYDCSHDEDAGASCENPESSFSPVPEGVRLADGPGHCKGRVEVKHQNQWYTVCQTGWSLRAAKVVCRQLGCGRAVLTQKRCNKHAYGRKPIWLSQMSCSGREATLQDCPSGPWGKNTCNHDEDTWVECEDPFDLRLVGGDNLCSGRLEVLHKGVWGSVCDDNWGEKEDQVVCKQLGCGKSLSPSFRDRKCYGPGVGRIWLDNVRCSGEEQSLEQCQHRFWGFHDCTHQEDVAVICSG
Description: BLI (Octet RED96), antibody on protein A biosensors, CD5L 0.1-200 nM in solution, 1:1 fit. The procedure:
All experiments were performed with shaking at 1,000 rpm. Background wavelength shifts were measured from reference biosensors that were loaded only with antibody. ForteBio's data analysis software was used to fit the data to a 1:1 binding model to extract an association rate and dissociation rate.

For test [2], the target named is T1, Human recombinant CD5L protein (Sino …). Put plainly: titration ELISA, human CD5L coated on plate. The procedure:
FIG. 11. […] Bound antibody was detected using a secondary antibody against rabbit IgG conjugated with HRP and TMB substrate for detection of A450 nm. EC₅₀ was estimated using GraphPad software by applying a 4-parameter fitting to calculate binding affinity of the antibodies.
Binding constants (EC₅₀) of a panel of monoclonal antibodies were estimated by titration ELISA, and the data were analyzed using the 4-parameter curve fitting with GraphPad Prism program (Table 6).
In general terms: In an ELISA, binding on a coated surface is turned into a signal by an enzyme label.

The source of these data is patent US20240383999A1 (University of Texas, published 2024).

B1: R-35 (antibody, V domains shown)
VH: AAVKESGGRLVTPGTPLTLTCTVSGIDLSDYYMTWVRQAPGKGLEYIGIIYASGNAYFASWAKGRFTISRTSSTTVDLNVASPTTEDTATYFCARNIGGSSNLWGQGTLVTVSS
VL: ELDMTQTPASVSEPVGGTVTIKCQASERIYNNLAWYQQKPGQPPKLLFYSASTLASGVPSRFKGSGSGTEFTLTISDLECADAAIYYCQCTGYGTTYGLVFGGGTEVEI
notes: also called anti-CD5L antibody R-35; CD5L antibody (R-35)
As to B1, the Kd – broadly, the constant that tells how readily two partners part at equilibrium – in test [1] came to 0.78 nM. In test [2], the EC50 (as a rule, the concentration that produces a half-maximal response) came to 0.169 µg/mL.

B2: R-13 (antibody, V domains shown)
VH: QSLEESGGRLVTPGTPLTLTCTVSGFSLSSYPMSWVRQAPGKGLEWIGIITSGGSIFYATWANGRFTISKTSTTVDLKITSPTTEDTATYFCARGYSSGTMMSSNLWGQGTLVTVSS
VL: ELVLTQTPASVSEPVGGTVTIKCQASESISTYLSWYQQKPGQRPKLLIYRASTLESGVPSRFKGSGSGTEYTLTISGVQCADAATYYCQQGYTYKNVDNAFGGGTEVVVK
B2: in test [1], the Kd came to 1.72 nM. The concentration for a half-maximal effect (EC50) in test [2] came to 0.116 µg/mL.

B3: H-447 (antibody, V domains shown)
VH: EVQLVQSGGGLVQPGGSLRLSCAASGFTVSSNYMSWVRQAPGKGLEWVSVIYSGGSTYYADSVKGRFTISRHNSKNTLYLQMNSLRAEDTAVYYCARESAVAGWGMDVWGKGTTVTVSS
VL: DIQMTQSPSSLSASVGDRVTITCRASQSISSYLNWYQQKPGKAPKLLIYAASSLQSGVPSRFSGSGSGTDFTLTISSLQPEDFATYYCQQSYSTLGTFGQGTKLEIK
With B3, the equilibrium dissociation constant (Kd) in test [1] was determined as 28.7 nM. In addition, the EC50 in test [2] was found to be 0.25 µg/mL.

B4: R-40 (antibody, V domains shown)
VH: QSVKESGGRLVKPDETLTITCTVSGIDLSRYSIQWVRQAPGGGLQWIGVMSIGSSAYYANWAKGRFTISKTSSTTVDLTMTSLTAADTATYFCARSNLYRGAFDPWGPGTLVTISS
VL: ELVMTQTPASVEAAVGGTVTIKCQSSESVYKNNYLSWYQLKPGQPPKLLFYSASTLASRVPSRFSGSGSGTQFTLTISDLECDDAATYYCAGYYGSSSVDRYTFGGGTEVEIK
With B4, the Kd in test [1] was determined as 1.74 nM. The concentration for a half-maximal effect (EC50) in test [2] was determined as 0.21 µg/mL.

B5: R-45 (antibody, V domains shown)
VH: QSVKESGGRLVTPGTPLTLTCTVSGFSINDFHMCWVRQAPGKGLEYIGMIGTGGSAYYATWTKGRFTISRTSTTVDLKITSPTTEDTATYFCARRDWSDGGYSLLWGQGTLVTVSS
VL: ELDLTQTPASVSEPVGGTVTIKCQASQSIRTYLNWYQQKPGQPPKLLIYSASTLASGIPSRFKGSGSGTQFTLTISDLECADAATYYCQQGYYWSDVENTFGGGTEVEIN
In the case of B5, the Kd in test [1] was found to be 2.97 nM. In test [2], the concentration giving a half-maximal response (EC50) came to 0.0788 µg/mL.

B6: R-18 (antibody, V domains shown)
VH: QSVKESGGRLVTPGTPLTLTCTVSGFSLSNYAMSWVRQAPGKGLEWIGIIVTSGSTYYASWAKGRFTISKTSTTVDLKMTSLTAADTATYFCARHAYSIGSSLWGQGTLVTISS
VL: ELDLTQTPPSASEPVGGTVTIKCQASESISVRLAWYQQKPGQPPKLLIYKASNLPSGVPSRFKGSGSGTEFTLTISDLECDDAATYYCRNYYDISNNGAGFGGGTEVEIK
For the molecule B6, in test [1], the Kd was 1.56 nM. The EC50 in test [2] was 0.19 µg/mL.

B7: R-3 (antibody, V domains shown)
VH: QSLKESGGRLVKPDETLTITCTASGIDLTSGTVGWFRQAPGKGLEWIGIIRGSGSTYYATWAKGRFTISKTSTTVDLKLTSPTTEDTATYLCARAFPGYNTFFNFWGQGTLVTISS
VL: ELDLTQTPSSVEAAVGGTVTIKCQASESIGNALAWYQQKPGQPPKLLIWKASNLESGVPPRFKGSGSGTEFTLTISDLECADAATYYCQRYYFNGVSVEIVFGGGTEVVVKG
Take B7: the Kd in test [1] amounted to 2.18 nM. Also, in test [2], the EC50 came out at 0.183 µg/mL.

B8: R-34 (antibody, V domains shown)
VH: QSVKESGGRLVTPGTPLTLTCTVSGFSLSSSGMSWVRQAPGKGLEWIGLTFPSGSASYASWAKGRFTVSRTSTTVDLNLTSPTTEDTATYFCAHVGATTGRDFWGQGTLVTVSS
VL: ELVMTQTASSVSAAVGGTVTISCQSSQNIYNNRWSWYQQKPGQPPKLLIYQASTLASGVPSRFKGSGSGTQFTLTISGVQCDDAATYYCAGGYSGTIFTFGGGTELEIK
As to B8, the Kd in test [1] amounted to 1.35 nM. Also, the EC50 in test [2] is 0.22 µg/mL.
